Laboratory results taken from the supplement of paper PMC9942255.
Several values for one entry are separate records, joined by “and”; a condition that tells them apart may be missing. Equal values may be shown once.

System: Bacillus subtilis DB104 (SP-AmyQ fusion secretion)
Assay: AmyQ secretion efficiency, weighted average sort bin (1 = best secretion, 10 = worst) (bin number (weighted average, 1-10)); higher = lower secretion efficiency
Outline: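 B. subtilis DB104 library expressing mature AmyQ fused to designed signal peptides (amyE-integrated) was encapsulated at about 0.3 cells per ~65 nL alginate bead with fluorescein-starch, grown about 13 h at room temperature and nile red stained. Occupied beads were sorted by large-particle flow cytometry into 10 equally populated bins by green/red fluorescence ratio, and each bin's amplicons were Illumina-sequenced. Secretion score is the read-frequency-weighted average bin number, normalised to beads per bin, excluding low-abundance sequences.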

Sequence | AmyQ secretion efficiency
MMIKQNMSSCVICLSLLVFGTTAAHAEET | 2.9
MLKKIGYQGCPRSYGSLLFFTAPASAHVS | 7.75
MTMLRKIIGWILLLCIIPLFAFTVIHSGKEV | 6.94
MPYLKRVLLLLVTGLFMSLFAVTATLSAQTG | 1.38
MKLAKRVSALTPSTTLAITAKAAED | 5.72
MRKKLKWLSFLLGFIILLFLFKYQFSSNDS | 5.44
MRPVFPLILSAVLFLSCFFGARQTEASLSKR | 3.68
MPYLKRVLLLLVTGLFMSLFGDTATASAQTG | 1.23
MKNMSCKLVVSVTLFFSFLTIGPLAHRQNS | 6.88
MKKAFILSAAAAVGLFTFTSVVGASAKEL | 4.32
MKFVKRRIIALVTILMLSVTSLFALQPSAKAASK | 2.32
MLKKTILAAFILVGSTLGAFSFSSDASAKHV | 2.16
MKSKWMSGLLLVAVGTQVMVHAGET | 5.76
MLGKIALTLCPAIVGSLLFFTAPASAHVS | 2.47
MGGGSFSIVFLILLLMLTLVVAPKEKAEAASS | 1.53
MFGTLFRVCFLAALIMAFTLPNSVYAQKP | 2.52
MKLSVKIAGVLTVAAAAMTAKMYATVKGN | 6.87
MKRFLIGAGVAAVILKRWFIARHQTHSQEM | 7.28
MKGWMRTTLVVLFTIVTFGLVSPPAALMADKP | 7.14
MKRILLSSALSFGMLISAVPALAAGT | 2.79
MARRRRRKAAVIVIAALITFNVRNASPG | 6.9
MKKRLIGFLVLVPALIMSGITLIEINKK | 7.02

Sequence | AmyQ secretion efficiency
MKRTLPLLIVCLAFSSFSASARAASE | 2.25
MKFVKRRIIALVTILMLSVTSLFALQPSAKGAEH | 3.59
MKKWMITIAMLILAGIALFVFISPLKGHKT | 6.29
MKSKGSIMACLILFSFTITTFINEISAFSN | 6.8
MKKAWFLPLVCVLLISGWLAPAASASAQTT | 2.33
MKLKKRVSMFLVALTMCGGLFVTPTKAVKT | 3.85
MKKTIMSFVAVAALSTTAFGAHFSAKEI | 4.73
MKLRKVLTGSVLSLGLLPPSSPAFATSP | 1.49
MNLRKILLSSALSLGMLVSAAPWLATSS | 6.1
MKKRYMAFIICLSLILSVLAAPPSGAKAESV | 2
MRKKTKNRLISSVLSTVVISSLLFPGAAGASEE | 2.7
MRNLTKTSLLLAGLCTAAQMVFVTHASAAKR | 2.59
MKLAKRVSALTPSTTLAIATVLATAKAKEL | 6.28
MGRIKTKITILLVLLLLLAGTYMYIN | 6.42
MKIRKILLMMALFFMMLISAVPALAAGT | 2.45
MMIKQCRKCKRLLVFGTTAAHAEET | 6.79
MKKKQVMLALTAAAGLGLTALHSAPAAKADDD | 5.2
MKVLLSALLLLLFAFEPSFASGKKL | 5.58
MGLGKKLSVAVAASFMSLSISLPGVQPAEG | 4.8
MPVLLSALLLLLFAFEPSASGKKL | 6.19
MKKQIITATTAVVLGSTLFAGAQSAQSI | 4.07
MKRFLIGAGVAAVILSGWFIADHQTHVQEM | 6.76

Sequence | AmyQ secretion efficiency
MKKWMAGLFLAAAVLLCLMVPQQLQGASS | 5.67
MVKKWLIQFAVMLSVLSTFTYSASAVGV | 3.04 and 1.99
MKKRLIAPMLLSAASLAFFAMAQAAAY | 6.11
MKKKLAAGLTASAIVGTTLVVTPAETATI | 5.92
MRGKSAVLLSLIMLIAGFLISFQFQM | 7.36
MKVLLSALLLLLFAFEPSESGKKL | 6.5
MNKLKRLSMLTVMIASVFIFSSHALAARR | 2.05
MKKVLMAFIICLSLILSVLAAPPSGAKAASK | 1.85
MRFTKVVGFLSVLGLAAVFPLTAQAADD | 3.85
MTKKAWFLPLVCVLLISGWLAPAASCSAQTT | 3.03
MKKAAAVLLSLGLVFGFSYGAGHVAEAAKK | 5.64
MKKRLIAPMLLSAASLAFFAMSGSAQEAAY | 6.78
MRSKKLWISLLFALTLIFTMAFSNMSAQWAGK | 6.53
MLTKRLLTIYIMLLGLIAWFPGAAQAATP | 2.42
MNITIMSFVAVAALSTTAFGAHASAKEI | 3.64
MKKWMITIAMLKKKRRRLFVFISPLKSHKT | 7.47
MKLKKRVSMFLVALTMCGTPAKAVKT | 2.72
MTKKAWFLPLVCVLLIVSWLASAASASAQTT | 2.08
MKKRLIAPMLLSAASLAFFAEEESAQAAAY | 2.27
MKKWLIIAVSLAIAIVLFMYTKGEPKAAGM | 5.65
